Earlier results as cited in article PMC3000922.

Biological target: integrin β3 cytoplasmic tail (Homo sapiens) (UniProt P05106)
Experiment: SPR

Sequence of UniProt P05106 (P05106 742-788): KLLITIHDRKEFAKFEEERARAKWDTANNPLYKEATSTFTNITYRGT

## integrin αIIb cytoplasmic tail (from UniProt P08514)
  Kd: 7 µM
